Data reported in patent US7465787.

Molecular target: biotinylated soluble single-chain Vb8-Va3 TCR (mouse)
Assay: flow cytometry titration of whole yeast cells with biotinylated scTCR, Scatchard analysis; assumes 100% active scTCR

Kd: 500 nM
Substance: wt scFv-KJ16 displayed on yeast as Aga2p-HA-scFv-KJ16-c-myc fusion (from UniProt P32781 19-87)
